Laboratory results: paper PMC4497409 (2015)

Molecular target: Biotinylated human Norrin K58N (disease-associated mutation) (human, UniProt Q00604 25-133, K58N, biotin on the C-terminal BirA recognition sequence (in vivo biotinylation))
Test: SPR

Biotinylated human Norrin K58N (disease-associated mutation), sequence (Q00604 25-133 K58N): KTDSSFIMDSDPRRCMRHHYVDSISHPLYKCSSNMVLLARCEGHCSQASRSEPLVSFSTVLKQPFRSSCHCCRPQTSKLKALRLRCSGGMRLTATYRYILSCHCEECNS

Kd: 1240 nM
B1: Frizzled4 cysteine-rich domain (Fz4CRD), human (domain or fragment)
chain: ERRCDPIRISMCQNLGYNVTKMPNLVGHELQTDAELQLTTFTPLIQYGCSSQLQFFLCSVYVPMCTEKINIPIGPCGGMCLSVKRRCEPVLKEFGFAWPESLNCSKFPPQNDHNHMCMEGPGDEEVPLPHKTPIQPGE
modifications: N-linked glycans at Asn59 and Asn144 (full, or cut to N-acetylglucosamine by Endo-F1)
